Experimental data reported in patent US20250228937A1, “MEDICAMENT FOR TREATMENT AND/OR PREVENTION OF CANCER” (TORAY INDUSTRIES, INC., priority 2021, published 2025).

Molecular target: T1, CAPRIN-1 protein (Homo sapiens, UniProt Q14444)
T1 construct: made in house
T1 sequence (Q14444 1-709): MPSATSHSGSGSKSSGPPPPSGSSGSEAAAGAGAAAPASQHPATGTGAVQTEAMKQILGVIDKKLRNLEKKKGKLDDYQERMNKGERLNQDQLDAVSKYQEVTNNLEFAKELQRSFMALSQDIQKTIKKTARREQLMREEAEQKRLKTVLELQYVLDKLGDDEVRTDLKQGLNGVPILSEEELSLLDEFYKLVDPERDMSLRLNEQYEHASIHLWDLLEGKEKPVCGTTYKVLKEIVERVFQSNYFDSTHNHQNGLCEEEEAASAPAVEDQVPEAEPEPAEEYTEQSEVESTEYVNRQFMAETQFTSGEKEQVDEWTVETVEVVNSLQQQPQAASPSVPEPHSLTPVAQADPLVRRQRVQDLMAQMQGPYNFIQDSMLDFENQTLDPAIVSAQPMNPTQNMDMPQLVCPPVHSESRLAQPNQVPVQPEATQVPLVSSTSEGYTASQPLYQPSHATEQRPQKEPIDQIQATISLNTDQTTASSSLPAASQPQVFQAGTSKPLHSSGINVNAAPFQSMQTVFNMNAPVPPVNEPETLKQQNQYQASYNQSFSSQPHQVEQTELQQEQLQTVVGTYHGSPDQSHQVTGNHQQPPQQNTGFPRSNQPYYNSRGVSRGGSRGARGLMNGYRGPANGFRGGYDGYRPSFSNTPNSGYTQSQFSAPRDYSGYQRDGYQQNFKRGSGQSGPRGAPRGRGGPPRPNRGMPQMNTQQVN
Experiment: ELISA using CAPRIN-1 protein immobilized on a plate
Assay type: binding
Procedure: One hundred (100) μg of a human CAPRIN-1 recombinant protein produced according to Example 3 of WO2010/016526 was mixed with an MPL+TDM adjuvant (Sigma) in an amount equivalent to that of the antigen protein. The mixture was used as an antigen solution per mouse. The antigen solution was administered intraperitoneally to 6-week-old Balb/c mice (Japan SLC Inc.) and then further administered 3 times […] every week for completion of immunization. A spleen was removed on day 3 after the final immunization and then ground between two sterilized glass slides. Spleen cells were obtained by repeating the following procedure three times: washing with PBS(−) (manufactured by Nissui Pharmaceutical Co., Ltd.), centrifuging at 1500 rpm for 10 minutes, and removing supernatant. The obtained spleen cells were mixed with mouse myeloma cell SP2/0 (purchased from ATCC) at a ratio of 10:1. The PEG solution prepared by mixing 200 μl of RPMI1640 medium containing 10% FBS heated at 37° C. and 800 μl of PEG1500 (Boehringer) was added to the cells. The solution was incubated for 5 minutes for cell fusion. Centrifugation was performed at 1700 rpm for 5 minutes to remove supernatants. […] Absorbance at 450 nm and absorbance at 595 nm were measured using an absorption spectrometer. As a result, a plurality of hybridomas producing antibodies with high absorbances were selected. […]

reactivity with CAPRIN-1 protein: exhibiting reactivity
B1: (ab): mouse monoclonal antibody against CAPRIN-1 described in WO2013/125630, heavy-chain variable region SEQ ID NO: 114, light-chain variable region SEQ ID NO: 115 (antibody, listed as Mus musculus, V domains shown)
VH: GPELVKPGASVKMSCKASGYTFTSYVMHWVKQKPGQGLEWIGYINPYNDGTKYNEKFKGKATLTSDKSSSTAYMELSSLTSEDSAVYYCARRYYYGSSGGYFDVWAQDHVRT
VL: DVQITQSPSYLAASPGETITINCRASKSISKYLAWYQEKPGKTNKLLIYSGSTLQSGIPSRFSGSGSGTDFTLTISSLEPEDFAMYYCQQHNEYPYTFGGGTKLEIKR
